We go through one substance from PMC5880795, “Cloning and expression of a novel α-1,3-arabinofuranosidase from Penicillium oxalicum sp. 68” (AMB Express, 2018).

In the data set the test system is T1, O=[N+]([O-])c1ccc(O[C@@H]2O[C@@H](CO)[C@H](O)[C@H]2O)cc1.
T1 construct: signal peptide (predicted residues 1-30) removed; pPIC9K SnaBI/EcoRI, secreted from Pichia pastoris GS115; no tag mentioned
The data set can be described thus: purified protein. Type of data set: biochemical, Penicillium oxalicum. The note with it: 20 mM Na-acetate pH 4.5, 37 °C (standard assay; kinetic conditions not restated).

Sequence of PoAbf62A (Penicillium oxalicum 114-2) (chain, as listed by the source): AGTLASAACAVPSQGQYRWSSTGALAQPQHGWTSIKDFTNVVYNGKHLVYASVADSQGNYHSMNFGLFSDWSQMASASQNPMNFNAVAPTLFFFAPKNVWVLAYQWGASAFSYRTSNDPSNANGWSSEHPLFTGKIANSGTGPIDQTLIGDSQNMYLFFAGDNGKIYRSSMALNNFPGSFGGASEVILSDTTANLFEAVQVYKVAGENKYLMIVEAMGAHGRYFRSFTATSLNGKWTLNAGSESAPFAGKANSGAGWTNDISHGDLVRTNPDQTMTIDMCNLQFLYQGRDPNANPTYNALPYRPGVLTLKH

The Km is the concentration of substrate that gives half-maximal velocity. The term kcat denotes the maximal rate divided by the concentration of active sites. On to PoAbf62A (Penicillium oxalicum 114-2), for which the Michaelis constant (Km) was found to be 1360 ± 120 µM and the kcat came out at 0.27 ± 0.01 s⁻¹.
